In the RNAGym collection of RNA variant scans (doi:10.1073/pnas.2313332121):
Variants at the floor of the assay were thinned out.

B1: TPR 5TU (parent)
chain: GGAUCUUCUCGAUCUAACAAAAAAGACAAAUCUGCCACAAAGCUUGAGAGCAUCUUCGGAUGCAGAGGCGGCAGCCUUCGGUGGCGCGAUAGCGCCAACGUUCUCAACUAUGACACGCAAAACGCGUGCUCCGUUGAAUGGAGUUUAUCAUG

Variants of: B1
Experiment: polymerase ribozyme fitness, log enrichment relative to wild type (log ratio); higher = more active; in vitro selection for triplet polymerase activity
How it was run: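 The heterodimeric triplet polymerase ribozyme's subunits were each mutagenized into PCR-built libraries and transcribed. Every library was selected once, in triplicate, by annealing with a biotinylated primer, the partner subunit and triplets, incubating frozen at −7 °C, gel-excising extended constructs, capturing on streptavidin beads and running RT-PCR. Input and output libraries were Illumina-sequenced, with genotypes kept only at ≥10 input reads and ≥1 read per output. Fitness, from inverse-variance-weighted replicate averages, is the base-2 logarithm of genotype enrichment over wild-type enrichment.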

U7G A22G C32U G59C U77G C114U U145A and U6G A21U G94A U104G U127A cannot be ordered by “polymerase ribozyme fitness (log ratio)” value: ≤ -4.2 for the first, ≤ -4.2 for the second.

Compared with U7A G92U, U7C G11C G59A G71C C76U G84U A138C is lower in “polymerase ribozyme fitness (log ratio)” value: -3.96 for the first, ≤ -4.2 for the second.

Compared with U7G A21C C32A A49C U53C C69U A142C, U6G U78G C93U A98G A142C is higher in “polymerase ribozyme fitness (log ratio)” value: ≤ -4.2 for the first, -3.99 for the second.

First: U7A A23C C36A U56A A91U C132G
Second: U7G C69G C93A
The “polymerase ribozyme fitness (log ratio)” value of the first is higher: -3.78 for the first, ≤ -4.2 for the second.

Compared with U7C C18G G94A G117C, U6G U13G A16G C85G G86A A142G is lower in “polymerase ribozyme fitness (log ratio)” value: -3.67 for the first, ≤ -4.2 for the second.

Going from U7C U56A G94A A98G to U7G C63G C76G C93G A97U C99G A106U, the “polymerase ribozyme fitness (log ratio)” value falls from -3.41 to ≤ -4.2.

Compared with U6G G58C C131A, U6G A30C C43G A52C C54U U77A C85G A119G U148G is lower in “polymerase ribozyme fitness (log ratio)” value: -2.15 for the first, ≤ -4.2 for the second.

Going from U7A A16U A20G G48A C57A G58U A64G C87A G92U G126A C129A A137C to U6G A22U C85A, the “polymerase ribozyme fitness (log ratio)” value rises from ≤ -4.2 to -0.601.

U6G U44G A47U U53C A64C C103A and C8A A28U C79U C93U C105U cannot be ordered by “polymerase ribozyme fitness (log ratio)” value: ≤ -4.2 for the first, ≤ -4.2 for the second.

U7G U15A A41U A66C G94U C99G G133U U148G and C8A A49G C76A C93A C103G C105A U127C cannot be ordered by “polymerase ribozyme fitness (log ratio)” value: ≤ -4.2 for the first, ≤ -4.2 for the second.

U7C A17G A23U A52C C76G C85U C93A G128U G152C and U7A U44A cannot be ordered by “polymerase ribozyme fitness (log ratio)” value: ≤ -4.2 for the first, ≤ -4.2 for the second.

Going from U7C G48C C85U to U7C U9G C54U A107C U127A, the “polymerase ribozyme fitness (log ratio)” value falls from -3.27 to ≤ -4.2.

Going from U6G U31G G84U to U6G A12U A22U A64U G88C C95U, the “polymerase ribozyme fitness (log ratio)” value falls from -0.345 to ≤ -4.2.

First: U6G
Second: U6G A120G
The “polymerase ribozyme fitness (log ratio)” value of the first is higher: 0.0167 for the first, -0.399 for the second.

U7C A21C A24C G62C C76A G133C and U6G U7C A20U A39G A40C G42C G59A G92U C93G A115U C116U cannot be ordered by “polymerase ribozyme fitness (log ratio)” value: ≤ -4.2 for the first, ≤ -4.2 for the second.

Going from U7A A26G U31C G50U A73C G86A U104G to U6G G50U C85U C116U, the “polymerase ribozyme fitness (log ratio)” value rises from ≤ -4.2 to 0.202.

U7A G83A A121G U145G U148G and U7C G50U G140U cannot be ordered by “polymerase ribozyme fitness (log ratio)” value: ≤ -4.2 for the first, ≤ -4.2 for the second.

Compared with U7A C35A C87A C93A, U7G C95U is higher in “polymerase ribozyme fitness (log ratio)” value: ≤ -4.2 for the first, -2.93 for the second.

U7A U31G G81C G84U C95U A107G G128U A137G and U7G C76A C85G C95A A121U cannot be ordered by “polymerase ribozyme fitness (log ratio)” value: ≤ -4.2 for the first, ≤ -4.2 for the second.

U7C C27A C69G G86A G100C and U7G C32U C54G C96U cannot be ordered by “polymerase ribozyme fitness (log ratio)” value: ≤ -4.2 for the first, ≤ -4.2 for the second.

Compared with U7G G48C G84A, U7G A23C A28U C38G A121G is lower in “polymerase ribozyme fitness (log ratio)” value: -3.94 for the first, ≤ -4.2 for the second.

U6G G48C A52G C96A A121U G140A and U7G A26C U31G U55A G86C G126U cannot be ordered by “polymerase ribozyme fitness (log ratio)” value: ≤ -4.2 for the first, ≤ -4.2 for the second.

U7A A28G A40U A49C G50C C87A U144G and U7G G74A C103A cannot be ordered by “polymerase ribozyme fitness (log ratio)” value: ≤ -4.2 for the first, ≤ -4.2 for the second.

U7G G50C U56G G94C and U7A G11A A41G A66C U77C C85U A106C U151A cannot be ordered by “polymerase ribozyme fitness (log ratio)” value: ≤ -4.2 for the first, ≤ -4.2 for the second.

Going from U6G A24U A119U G136U to C8A A49G G74A G86U G141U U148G, the “polymerase ribozyme fitness (log ratio)” value falls from -3.74 to ≤ -4.2.

C8A A17U A26U G48U G68U C93G C132G G141C U148G and U6G C10G G50C U55A G58A C72G C95U C96U U144G U148A cannot be ordered by “polymerase ribozyme fitness (log ratio)” value: ≤ -4.2 for the first, ≤ -4.2 for the second.

U7G U45A C57U C76A G83A G84A and U7C A19U C35U A37G U55G C76G G86A G88U C103G G124A cannot be ordered by “polymerase ribozyme fitness (log ratio)” value: ≤ -4.2 for the first, ≤ -4.2 for the second.

U7G C38A G83A G84U U148C and U6G A28G G58U C85U cannot be ordered by “polymerase ribozyme fitness (log ratio)” value: ≤ -4.2 for the first, ≤ -4.2 for the second.

Compared with U6G A20U A73U U134C U145G, U7A G71A C96G is lower in “polymerase ribozyme fitness (log ratio)” value: -3.22 for the first, ≤ -4.2 for the second.

Compared with U6G A40U U56A C93U A106C, U7C C18U U61C C69A C93A C114U is lower in “polymerase ribozyme fitness (log ratio)” value: -1.92 for the first, ≤ -4.2 for the second.

First: U7C A16U A49G G92C
Second: U7G A30G C32A A39U A60G C96U G126U G140U
The “polymerase ribozyme fitness (log ratio)” value of the first is lower: ≤ -4.2 for the first, -3.86 for the second.

First: U7A G94C U111C U135A A138U
Second: U7G G92U
The “polymerase ribozyme fitness (log ratio)” value of the first is lower: -3.87 for the first, -2.39 for the second.

U7G U15A G58U G70C A91G and U7G C10A C75A C87A C125G A138U cannot be ordered by “polymerase ribozyme fitness (log ratio)” value: ≤ -4.2 for the first, ≤ -4.2 for the second.

Going from U7C C27U A49C A52G C79A C87G C93G C96A A97U C99U C108U A120U to U7C U56A A91U A106U C132U, the “polymerase ribozyme fitness (log ratio)” value rises from -4.18 to -3.92.

First: C8A A12G C85U C103G G124U C129A
Second: C8A A21C
The “polymerase ribozyme fitness (log ratio)” value of the first is lower: ≤ -4.2 for the first, -3.76 for the second.

First: C8A A16U A17U A26U G80C C87U U139G U151A
Second: U7C A24U C96U A107G C125G U144C U151C
The “polymerase ribozyme fitness (log ratio)” value of the first is lower: ≤ -4.2 for the first, -4.07 for the second.

Going from U7G A16C to C8A A22G U56A C57U C85G, the “polymerase ribozyme fitness (log ratio)” value falls from -2.38 to ≤ -4.2.

Going from U7G A19G to C8A A39G G84U A106U C149G, the “polymerase ribozyme fitness (log ratio)” value falls from -2.47 to ≤ -4.2.

U7C C18G G86A U148A and U7C A24U G84U C87G A107C G112U G133U cannot be ordered by “polymerase ribozyme fitness (log ratio)” value: -4.2 for the first, ≤ -4.2 for the second.

U7A A21U G25U U44A A49C C54A C63G C85U G86U C99G and U7A C8G A89C C95G cannot be ordered by “polymerase ribozyme fitness (log ratio)” value: ≤ -4.2 for the first, ≤ -4.2 for the second.

U7A A24C G50U A52U C87G and C8A A22C C27U U44C C51U C79A C93G C95G C105G cannot be ordered by “polymerase ribozyme fitness (log ratio)” value: ≤ -4.2 for the first, ≤ -4.2 for the second.

U7G U13A A17U A20C G50A A122C G141U U151G and U6G A19G A30U A119G cannot be ordered by “polymerase ribozyme fitness (log ratio)” value: ≤ -4.2 for the first, ≤ -4.2 for the second.
